Laboratory results reported in PMC7055372.

Molecular target: Transforming growth factor β-1 (TGFβ-1) (UniProt P01137)
Assay: ELISA of cell-culture supernatant with anti-TGFβ-1 antibody after acid activation (latent complex formation/secretion)
Conditions: HEK293T cells transfected, supernatant after 48 h; acid-activated (short incubation with HCl); parent: est. 1.0; read off a plot

| response (Normalized OD450) | Substance |
| --- | --- |
| 0.6 | LAP of wild-type LTGFβ-1 C4S (full-length LTGFβ-1 expressed in HEK-293T cells) (from UniProt P01137) E113P |
| 0.18 | LAP of wild-type LTGFβ-1 C4S (full-length LTGFβ-1 expressed in HEK-293T cells) (from UniProt P01137) L111P |
| 0.53 | LAP of wild-type LTGFβ-1 C4S (full-length LTGFβ-1 expressed in HEK-293T cells) (from UniProt P01137) S109P |
